Test results as given in patent publication US20120034160A1 (AbbVie / Abbott, published 2012).
Numbering of substitutions follows the chain as printed.

T1: Recombinant Human IL-17 (human, UniProt Q16552 20-155, limits assumed)
T1 construct: bought reagent
T1 sequence (looked up): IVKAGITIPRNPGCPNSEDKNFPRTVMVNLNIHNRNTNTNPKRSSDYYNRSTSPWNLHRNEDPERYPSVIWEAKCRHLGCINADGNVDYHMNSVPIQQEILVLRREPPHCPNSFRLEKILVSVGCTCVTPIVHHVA

B1: DVD1620 (bispecific antibody, human IgG1, kappa)
heavy: not shown
light: DIQMTQSPSSLSASVGDRVTITCRASSGIISYIDWFQQKPGKAPKRLIYATFDLASGVPSRFSGSGSGTDYTLTISSLQPEDFATYYCRQVGSYPETFGQGTKLEIKRTVAAPDIQMTQSPSSLSASVGDRVTITCRASGNIHNYLTWYQQTPGKAPKLLIYNAKTLADGVPSRFSGSGSGTDYTFTISSLQPEDIATYYCQHFWSIPYTFGQGTKLQITRTVAAPSVFIFPPSDEQLKSGTASVVCLLNNFYPREAKVQWKVDNALQSGNSQESVTEQDSKDSTYSLSSTLTLSKADYEKHKVYACEVTHQGLSSPVTKSFNRGEC
notes: V1 wt hIgG1, V2 kappa; also called DVD1620H; DVD1620L
B2: DVD1622 (bispecific antibody, human IgG1, kappa)
heavy: not shown
light: B1 light
notes: V1 wt hIgG1, V2 kappa; also called DVD1622H; DVD1622L
B3: DVD1276 (bispecific antibody, human IgG1, kappa)
heavy: not shown
light: DTQVTQSPSSLSASVGDRVTITCITSTDIDVDMNWYQQKPGKPPKLLISQGNTLRPGVPSRFSSSGSGTDFTFTISSLQPEDFATYYCLQSDNLPLTFGQGTKLEIKRTVAAPEIVLTQSPDFQSVTPKEKVTITCRASQDIGSELHWYQQKPDQPPKLLIKYASHSTSGVPSRFSGSGSGTDFTLTINGLEAEDAGTYYCHQTDSLPYTFGPGTKVDIKRTVAAPSVFIFPPSDEQLKSGTASVVCLLNNFYPREAKVQWKVDNALQSGNSQESVTEQDSKDSTYSLSSTLTLSKADYEKHKVYACEVTHQGLSSPVTKSFNRGEC
notes: DVD-Ig, outer AB270, inner AB274, linker set 1; V1 wt hIgG1, V2 kappa; also called DVD1276H; DVD1276L
B4: DVD1266 (bispecific antibody, human IgG1, kappa)
heavy: not shown
light: DTQVTQSPSSLSASVGDRVTITCITSTDIDVDMNWYQQKPGKPPKLLISQGNTLRPGVPSRFSSSGSGTDFTFTISSLQPEDFATYYCLQSDNLPLTFGQGTKLEIKRTVAAPDIQMTQSPSSLSASVGDRVTITCRASSGIISYIDWFQQKPGKAPKRLIYATFDLASGVPSRFSGSGSGTDYTLTISSLQPEDFATYYCRQVGSYPETFGQGTKLEIKRTVAAPSVFIFPPSDEQLKSGTASVVCLLNNFYPREAKVQWKVDNALQSGNSQESVTEQDSKDSTYSLSSTLTLSKADYEKHKVYACEVTHQGLSSPVTKSFNRGEC
notes: DVD-Ig, outer AB270, inner AB273, linker set 1; V1 wt hIgG1, V2 kappa; also called DVD1266H; DVD1266L
B5: DVD1270 (bispecific antibody, human IgG1, kappa)
heavy: not shown
light: B4 light with D1E, Q3T
notes: DVD-Ig, outer AB272, inner AB273, linker set 1; V1 wt hIgG1, V2 kappa; also called DVD1270H; DVD1270L
B6: DVD1626 (bispecific antibody, human IgG1, kappa)
heavy: not shown
light: DIQMTQSPSSLSASVGDRVTITCRASSGIISYIDWFQQKPGKAPKRLIYATFDLASGVPSRFSGSGSGTDYTLTISSLQPEDFATYYCRQVGSYPETFGQGTKLEIKRTVAAPDTVVTQSPAFLSVTPGEKVTITCITSTDIDVDMNWYQQKPDQPPKLLISQGNTLRPGVPSRFSSSGSGTDFTFTISSLEAEDAATYYCLQSDNLPLTFGQGTKLEIKRTVAAPSVFIFPPSDEQLKSGTASVVCLLNNFYPREAKVQWKVDNALQSGNSQESVTEQDSKDSTYSLSSTLTLSKADYEKHKVYACEVTHQGLSSPVTKSFNRGEC
notes: DVD-Ig, outer AB273, inner AB271, linker set 3; V1 wt hIgG1, V2 kappa; also called DVD1626H; DVD1626L
B7: DVD1616 (bispecific antibody, human IgG1, kappa)
heavy: not shown
light: EIVLTQSPDFQSVTPKEKVTITCRASQNIGSELHWYQQKPDQSPKLLIKYASHSISGVPSRFSGSGSGTDFTLTINGLEAEDAATYYCHQSDTLPHTFGQGTKVDIKRTVAAPSVFIFPPDTVVTQSPAFLSVTPGEKVTITCITSTDIDVDMNWYQQKPDQPPKLLISQGNTLRPGVPSRFSSSGSGTDFTFTISSLEAEDAATYYCLQSDNLPLTFGQGTKLEIKRTVAAPSVFIFPPSDEQLKSGTASVVCLLNNFYPREAKVQWKVDNALQSGNSQESVTEQDSKDSTYSLSSTLTLSKADYEKHKVYACEVTHQGLSSPVTKSFNRGEC
notes: DVD-Ig, outer AB275, inner AB271, linker set 2; V1 wt hIgG1, V2 kappa; also called DVD1616H; DVD1616L
B8: DVD1630 (bispecific antibody, human IgG1, kappa)
heavy: not shown
light: EIVLTQSPDFQSVTPKEKVTITCRASQDIGSELHWYQQKPDQPPKLLIKYASHSTSGVPSRFSGSGSGTDFTLTINGLEAEDAGTYYCHQTDSLPYTFGPGTKVDIKRTVAAPDIQMTQSPSSLSASVGDRVTITCRASGNIHNYLTWYQQTPGKAPKLLIYNAKTLADGVPSRFSGSGSGTDYTFTISSLQPEDIATYYCQHFWSIPYTFGQGTKLQITRTVAAPSVFIFPPSDEQLKSGTASVVCLLNNFYPREAKVQWKVDNALQSGNSQESVTEQDSKDSTYSLSSTLTLSKADYEKHKVYACEVTHQGLSSPVTKSFNRGEC
notes: V1 wt hIgG1, V2 kappa; also called DVD1630H; DVD1630L
B9: DVD1632 (bispecific antibody, human IgG1, kappa)
heavy: not shown
light: B8 light
notes: V1 wt hIgG1, V2 kappa; also called DVD1632H; DVD1632L
B10: DVD1272 (bispecific antibody, human IgG1, kappa)
heavy: not shown
light: DIQMTQSPSSLSASVGDRVTITCRASGNIHNYLTWYQQTPGKAPKLLIYNAKTLADGVPSRFSGSGSGTDYTFTISSLQPEDIATYYCQHFWSIPYTFGQGTKLQITRTVAAPEIVLTQSPDFQSVTPKEKVTITCRASQDIGSELHWYQQKPDQPPKLLIKYASHSTSGVPSRFSGSGSGTDFTLTINGLEAEDAGTYYCHQTDSLPYTFGPGTKVDIKRTVAAPSVFIFPPSDEQLKSGTASVVCLLNNFYPREAKVQWKVDNALQSGNSQESVTEQDSKDSTYSLSSTLTLSKADYEKHKVYACEVTHQGLSSPVTKSFNRGEC
notes: V1 wt hIgG1, V2 kappa; also called DVD1272H; DVD1272L
B11: DVD1274 (bispecific antibody, human IgG1, kappa)
heavy: not shown
light: B10 light
notes: V1 wt hIgG1, V2 kappa; also called DVD1274H; DVD1274L
B12: DVD1278 (bispecific antibody, human IgG1, kappa)
heavy: not shown
light: DTVVTQSPAFLSVTPGEKVTITCITSTDIDVDMNWYQQKPDQPPKLLISQGNTLRPGVPSRFSSSGSGTDFTFTISSLEAEDAATYYCLQSDNLPLTFGQGTKLEIKRTVAAPEIVLTQSPDFQSVTPKEKVTITCRASQDIGSELHWYQQKPDQPPKLLIKYASHSTSGVPSRFSGSGSGTDFTLTINGLEAEDAGTYYCHQTDSLPYTFGPGTKVDIKRTVAAPSVFIFPPSDEQLKSGTASVVCLLNNFYPREAKVQWKVDNALQSGNSQESVTEQDSKDSTYSLSSTLTLSKADYEKHKVYACEVTHQGLSSPVTKSFNRGEC
notes: DVD-Ig, outer AB271, inner AB274, linker set 1; V1 wt hIgG1, V2 kappa; also called DVD1278H; DVD1278L
B13: DVD1618 (bispecific antibody, human IgG1, kappa)
heavy: not shown
light: EIVLTQSPDFQSVTPKEKVTITCRASQNIGSELHWYQQKPDQSPKLLIKYASHSISGVPSRFSGSGSGTDFTLTINGLEAEDAATYYCHQSDTLPHTFGQGTKVDIKRTVAAPSVFIFPPETTVTQSPSSLSASVGDRVTITCITSTDIDVDMNWYQQKPGKPPKLLISQGNTLRPGVPSRFSSSGSGTDFTFTISSLQPEDFATYYCLQSDNLPLTFGQGTKLEIKRTVAAPSVFIFPPSDEQLKSGTASVVCLLNNFYPREAKVQWKVDNALQSGNSQESVTEQDSKDSTYSLSSTLTLSKADYEKHKVYACEVTHQGLSSPVTKSFNRGEC
notes: DVD-Ig, outer AB275, inner AB272, linker set 2; V1 wt hIgG1, V2 kappa; also called DVD1618H; DVD1618L
B14: DVD1624 (bispecific antibody, human IgG1, kappa)
heavy: not shown
light: DIQMTQSPSSLSASVGDRVTITCRASSGIISYIDWFQQKPGKAPKRLIYATFDLASGVPSRFSGSGSGTDYTLTISSLQPEDFATYYCRQVGSYPETFGQGTKLEIKRTVAAPDTQVTQSPSSLSASVGDRVTITCITSTDIDVDMNWYQQKPGKPPKLLISQGNTLRPGVPSRFSSSGSGTDFTFTISSLQPEDFATYYCLQSDNLPLTFGQGTKLEIKRTVAAPSVFIFPPSDEQLKSGTASVVCLLNNFYPREAKVQWKVDNALQSGNSQESVTEQDSKDSTYSLSSTLTLSKADYEKHKVYACEVTHQGLSSPVTKSFNRGEC
notes: DVD-Ig, outer AB273, inner AB270, linker set 3; V1 wt hIgG1, V2 kappa; also called DVD1624H; DVD1624L
B15: DVD1628 (bispecific antibody, human IgG1, kappa)
heavy: not shown
light: B14 light with D114E, Q116T
notes: DVD-Ig, outer AB273, inner AB272, linker set 3; V1 wt hIgG1, V2 kappa; also called DVD1628H; DVD1628L

How the values were obtained:
[1] = target: T2, Recombinant Human IL-1β (human, UniProt P01584 117-269); experiment: Biacore SPR; C-terminal VD
T2 construct: bought reagent; also called IL-1B
Summary of the method: (§1)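 Antibodies or DVD-Ig were captured at 25 μg/ml on an amine-coupled goat anti-mouse IgG (Fcγ) CM5 surface, with a blank dextran reference. Antigen was injected at 10−200 nM in HBS-EP pH 7.4 at 25° C. A global 1:1 Langmuir fit gave kon and koff, and KD = koff/kon.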

[2] = target: T1, Recombinant Human IL-17; experiment: Biacore SPR; N-terminal VD
Summary of the method: as §1

[3] = target: T2, Recombinant Human IL-1β; experiment: Biacore SPR; N-terminal VD
Summary of the method: as §1

| Binder | Kd [1] [nM] | koff [1] [s⁻¹] | kon [1] [M⁻¹ s⁻¹] | Kd [2] [nM] | koff [2] [s⁻¹] | kon [2] [M⁻¹ s⁻¹] | Kd [3] [nM] | koff [3] [s⁻¹] | kon [3] [M⁻¹ s⁻¹] |
| --- | --- | --- | --- | --- | --- | --- | --- | --- | --- |
| B1 | 0.29 | 9.4e-05 | 330000 | 0.0019 | 7.1e-06 | 3.8e+06 | – | – | – |
| B2 | 0.16 | 0.00023 | 1.5e+06 | 0.00046 | 1.7e-06 | 3.7e+06 | – | – | – |
| B3 | – | – | – | – | – | – | 0.082 | 0.00045 | 5.6e+06 |
| B4 | – | – | – | – | – | – | 0.077 | 0.00046 | 6e+06 |
| B5 | – | – | – | – | – | – | 0.1 | 0.00054 | 5.3e+06 |
| B6 | 1 | 0.00047 | 470000 | 0.0034 | 1.6e-05 | 4.8e+06 | – | – | – |
| B7 | 0.22 | 0.00036 | 1.6e+06 | 0.015 | 4.9e-05 | 3.3e+06 | – | – | – |
| B8 | 0.45 | 7.6e-05 | 170000 | 0.0045 | 1.6e-05 | 3.4e+06 | – | – | – |
| B9 | 0.42 | 4.7e-05 | 110000 | 0.005 | 1.6e-05 | 3.2e+06 | – | – | – |
| B10 | – | – | – | – | – | – | 0.03 | 4.5e-05 | 1.5e+06 |
| B11 | – | – | – | – | – | – | 0.031 | 4e-05 | 1.3e+06 |
| B12 | – | – | – | – | – | – | 0.069 | 0.00047 | 6.9e+06 |
| B13 | 0.26 | 0.00062 | 2.4e+06 | 0.019 | 6.3e-05 | 3.2e+06 | – | – | – |
| B14 | 0.84 | 0.00046 | 550000 | 0.011 | 4.1e-05 | 3.7e+06 | – | – | – |
| B15 | 1 | 0.00049 | 490000 | 0.0055 | 2.2e-05 | 4e+06 | – | – | – |
